Reference: paper PMC11638070

Target: mitochondrial heat shock protein 60 V72I (mtHsp60^V72I) (human) (UniProt P10809)

A steady-state ATPase activity of mtHsp60^V72I (500 nM monomer) against mtHsp10 (twofold series from 10 µM monomer); ~21 pmol ATP per min without mtHsp10 of 31 pmol/min was found for “mtHsp10 (from UniProt P61604 1-102) (natural protein)” in this work.
